# B1: full-length p115–GFP (wild type) [human] / Sec13 [human (endogenous in HEK293T)] (parent complex)
# chain 1: MNFLRGVMGGQSAGPQHTEAETIQKLCDRVASSTLLDDRRNAVRALKSLSKKYRLEVGIQAMEHLIHVLQTDRSDSEIIGYALDTLYNIISNEEEEEVEENSTRQSEDLGSQFTEIFIKQQENVTLLLSLLEEFDFHVRWPGVKLLTSLLKQLGPQVQQIILVSPMGVSRLMDLLADSREVIRNDGVLLLQALTRSNGAIQKIVAFENAFERLLDIISEEGNSDGGIVVEDCLILLQNLLKNNNSNQNFFKEGSYIQRMKPWFEVGDENSGWSAQKVTNLHLMLQLVRVLVSPTNPPGATSSCQKAMFQCGLLQQLCTILMATGVPADILTETINTVSEVIRGCQVNQDYFASVNAPSNPPRPAIVVLLMSMVNERQPFVLRCAVLYCFQCFLYKNQKGQGEIVSTLLPSTIDATGNSVSAGQLLCGGLFSTDSLSNWCAAVALAHALQENATQKEQLLRVQLATSIGNPPVSLLQQCTNILSQGSKIQTRVGLLMLLCTWLSNCPIAVTHFLHNSANVPFLTGQIAENLGEEEQLVQGLCALLLGISIYFNDNSLESYMKEKLKQLIEKRIGKENFIEKLGFISKHELYSRASQKPQPNFPSPEYMIFDHEFTKLVKELEGVITKAIYKSSEEDKKEEEVKKTLEQHDNIVTHYKNMIREQDLQLEELRQQVSTLKCQNEQLQTAVTQQVSQIQQHKDQYNLLKIQLGKDNQHQGSYSEGAQMNGIQPEEIGRLREEIEELKRNQELLQSQLTEKDSMIENMKSSQTSGTNEQSSAIVSARDSEQVAELKQELATLKSQLNSQSVEITKLQTEKQELLQKTEAFAKSVEVQGETETIIATKTTDVEGRLSALLQETKELKNEIKALSEERTAIKEQLDSSNSTIAILQTEKDKLELEITDSKKEQDDLLVLLADQDQKILSLKNKLKDLGHPVEEEDELESGDQEDEDDESEDPGKDLDHI
# chain 2: MVSVINTVDTSHEDMIHDAQMDYYGTRLATCSSDRSVKIFDVRNGGQILIADLRGHEGPVWQVAWAHPMYGNILASCSYDRKVIIWREENGTWEKSHEHAGHDSSVNSVCWAPHDYGLILACGSSDGAISLLTYTGEGQWEVKKINNAHTIGCNAVSWAPAVVPGSLIDHPSGQKPNYIKRFASGGCDNLIKLWKEEEDGQWKEEQKLEAHSDWVRDVAWAPSIGLPTSTIASCSQDGRVFIWTCDDASSNTWSPKLLHKFNDVVWHVSWSITANILAVSGGDNKVTLWKESVDGQWVCISDVNKGQGSVSASVTEGQQNEQ
# B2: full-length p115–GFP (wild type) [human] / endogenous Sec16A (HEK293T) [human (endogenous in HEK293T)] (parent complex)
# chain 1: B1 chain 1
# chain 2: MQPPPQTVPSGMAGPPPAGNPRSVFWASSPYRRRANNNAAVAPTTCPLQPVTDPFAFSRQALQSTPLGSSSKSSPPVLQGPAPAGFSQHPGLLVPHTHARDSSQGPCEPLPGPLTQPRAHASPFSGALTPSAPPGPEMNRSAEVGPSSEPEVQTLPYLPHYIPGVDPETSHGGHPHGNMPGLDRPLSRQNPHDGVVTPAASPSLPQPGLQMPGQWGPVQGGPQPSGQHRSPCPEGPVPSGVPCATSVPHFPTPSILHQGPGHEQHSPLVAPPAALPSDGRDEVSHLQSGSHLANNSDPESTFRQNPRIVNHWASPELRQNPGVKNEHRPASALVNPLARGDSPENRTHHPLGAGAGSGCAPLEADSGASGALAMFFQGGETENEENLSSEKAGLSGQADFDDFCSSPGLGRPPAPTHVGAGSLCQALLPGPSNEAAGDVWGDTASTGVPDASGSQYENVENLEFVQNQEVLPSEPLNLDPSSPSDQFRYGPLPGPAVPRHGAVCHTGAPDATLHTVHPDSVSSSYSSRSHGRLSGSARPQELVGTFIQQEVGKPEDEASGSFFKQIDSSPVGGETDETTVSQNYRGSVSQPSTPSPPKPTGIFQTSANSSFEPVKSHLVGVKPFEADRANVVGEVRETCVRQKQCRPAAALPDASPGNLEQPPDNMETLCAPQVCPLPLNSTTEAVHMLPHAGAPPLDTVYPAPEKRPSARTQGPVKCESPATTLWAQSELPDFGGNVLLAPAAPALYVCAKPQPPVVQPPEEAMSGQQSRNPSSAAPVQSRGGIGASENLENPPKMGEEEALQSQASSGYASLLSSPPTESLQNPPVLIAQPDHSYNLAQPINFSVSLSNSHEKNQSWREALVGDRPAVSSWALGGDSGENTSLSGIPTSSVLSLSLPSSVAQSNFPQGSGASEMVSNQPANLLVQPPSQPVPENLVPESQKDRKAGSALPGFANSPAGSTSVVLVPPAHGTLVPDGNKANHSSHQEDTYGALDFTLSRTLENPVNVYNPSHSDSLASQQSVASHPRQSGPGAPNLDRFYQQVTKDAQGQPGLERAQQELVPPQQQASPPQLPKAMFSELSNPESLPAQGQAQNSAQSPASLVLVDAGQQLPPRPPQSSSVSLVSSGSGQAAVPSEQPWPQPVPALAPGPPPQDLAAYYYYRPLYDAYQPQYSLPYPPEPGAASLYYQDVYSLYEPRYRPYDGAASAYAQNYRYPEPERPSSRASHSSERPPPRQGYPEGYYSSKSGWSSQSDYYASYYSSQYDYGDPGHWDRYHYSARVRDPRTYDRRYWCDAEYDAYRREHSAFGDRPEKRDNNWRYDPRFTGSFDDDPDPHRDPYGEEVDRRSVHSEHSARSLHSAHSLASRRSSLSSHSHQSQIYRSHNVAAGSYEAPLPPGSFHGDFAYGTYRSNFSSGPGFPEYGYPADTVWPAMEQVSSRPTSPEKFSVPHVCARFGPGGQLIKVIPNLPSEGQPALVEVHSMEALLQHTSEQEEMRAFPGPLAKDDTHKVDVINFAQNKAMKCLQNENLIDKESASLLWNFIVLLCRQNGTVVGTDIAELLLRDHRTVWLPGKSPNEANLIDFTNEAVEQVEEEESGEAQLSFLTGGPAAAASSLERETERFRELLLYGRKKDALESAMKNGLWGHALLLASKMDSRTHARVMTRFANSLPINDPLQTVYQLMSGRMPAASTCCGDEKWGDWRPHLAMVLSNLNNNMDVESRTMATMGDTLASRGLLDAAHFCYLMAQAGFGVYTKKTTKLVLIGSNHSLPFLKFATNEAIQRTEAYEYAQSLGAETCPLPSFQVFKFIYSCRLAEMGLATQAFHYCEAIAKSILTQPHLYSPVLISQLVQMASQLRLFDPQLKEKPEEESLAAPTWLVHLQQVERQIKEGAGVWHQDGALPQQCPGTPSSEMEQLDRPGLSQPGALGIANPLLAVPAPSPEHSSPSVRLLPSAPQTLPDGPLASPARVPMFPVPLPPGPLEPGPGCVTPGPALGFLEPSGPGLPPGVPPLQERRHLLQEARSPDPGIVPQEAPVGNSLSELSEENFDGKFANLTPSRTVPDSEAPPGWDRADSGPTQPPLSLSPAPETKRPGQAAKKETKEPKKGESWFFRWLPGKKKTEAYLPDDKNKSIVWDEKKNQWVNLNEPEEEKKAPPPPPTSMPKTVQAAPPALPGPPGAPVNMYSRRAAGTRARYVDVLNPSGTQRSEPALAPADFVAPLAPLPIPSNLFVPTPDAEEPQLPDGTGREGPAAARGLANPEPAPEPKVLSSAASLPGSELPSSRPEGSQGGELSRCSSMSSLSREVSQHFNQAPGDLPAAGGPPSGAMPFYNPAQLAQACATSGSSRLGRIGQRKHLVLN
# Variants of: B1
# Experiment: co-precipitation with p115–GFP, volcano plot of protein enrichment; HEK293T cells; means of biological triplicates; read off a plot
row,screen value,Variant
1,~5.8,chain 1 Q462D

# Variants of: B2
# Experiment: as above
row,screen value,Variant
1,~6.1,chain 1 Q462D

# — article PMC7619307, “The Golgi vesicle tether p115 can bind directly to the ER exit site organiser Sec16A” (Journal of cell science, 2026)
